According to patent publication US20090130697A1 (COLORADO STATE UNIVERSITY RESEARCH FOUNDATION, published 2009):

Target: FLS:Trg:EnvZ:AHK4 hybrid transmembrane histidine kinase (FLS2 plant leader, Trg extracellular domain, EnvZ, …)
Assay: cell-based or functional assay

GUS expression from the ARR5 promoter in transgenic Arabidopsis in response to TNT: ~2 fold
B1: SS-TNT, computationally designed TNT receptor (sensor protein): PEX secretory sequence fused to the periplasmic ribose binding protein engineered to bind TNT (designed binder)
chain: MERPFGCFFILLLISYTVVAKDTIALVVSTLNSPFLVSLKDGAQKEADKLGYNLVVLDSQNNPAKELANVQDLTVRGTKILLINPTDSDAVGNAVKMANQANIPVITLSSQATKGEVVSHIASDNVLGGKIAGDYIAKKAGEGAKVIELQGIAGTSSARESGEGFQQAVAAHKFNVLASQPADIDRIKGLNVMQNLLTAHPDVQAVFAQFDEMALGALRALQTAGKSDVMVVGFSGTPDGEKAVNDGKLAATIASLPDQIGAKGVETADKVLKGEKVQAKYPVDLKLVVKQDYKDDDDK
